Substrate: NC(=O)c1ccc[n+]([C@@H]2O[C@H](COP(=O)(O)OP(=O)(O)OC[C@H]3O[C@@H](n4cnc5c(N)ncnc54)[C@H](O)[C@@H]3O)[C@@H](O)[C@H]2O)c1
Experiment: purified protein
Conditions: co-substrate nicked DNA 10-80 nM; room temperature; value from NMN study
Description: FRET nick-ligation assay, global nonlinear least-squares fit of NMN product inhibition on NAD^+-dependent DNA ligase from Haemophilus influenzae

B1: NAD^+-dependent DNA ligase from Haemophilus influenzae (Haemophilus influenzae Rd KW20) (protein)
chain: MTNIQTQLDNLRKTLRQYEYEYHVLDNPSVPDSEYDRLFHQLKALELEHPEFLTSDSPTQRVGAKPLSGFSQIRHEIPMLSLDNAFSDAEFNAFVKRIEDRLILLPKPLTFCCEPKLDGLAVSILYVNGELTQAATRGDGTTGEDITANIRTIRNVPLQLLTDNPPARLEVRGEVFMPHAGFERLNKYALEHNEKTFANPRNAAAGSLRQLDPNITSKRPLVLNAYGIGIAEGVDLPTTHYARLQWLKSIGIPVNPEIRLCNGADEVLGFYRDIQNKRSSLGYDIDGTVLKINDIALQNELGFISKAPRWAIAYKFPAQEELTLLNDVEFQVGRTGAITPVAKLEPVFVAGVTVSNATLHNGDEIERLNIAIGDTVVIRRAGDVIPQIIGVLHERRPDNAKPIIFPTNCPVCDSQIIRIEGEAVARCTGGLFCAAQRKEALKHFVSRKAMDIDGVGGKLIEQLVDRELIHTPADLFKLDLTTLTRLERMGAKSAENALNSLENAKSTTLARFIFALGIREVGEATALNLANHFKTLDALKDANLEELQQVPDVGEVVANRIFIFWREAHNVAVVEDLIAQGVHWETVEVKEASENLFKDKTVVLTGTLTQMGRNEAKALLQQLGAKVSGSVSSKTDFVIAGDAAGSKLAKAQELNITVLTEEEFLAQITR
In the case of B1, the Km is reported as 0.65 ± 0.08 µM.
